US20030162734

What was measured:
[1] = target: GFP-DENN (full length DENN/MADD fused to the C-terminus of EGFP) (UniProt Q8WXG6)
[2] = target: DENN-JBD (JNK binding domain region of DENN lacking the NLS and DD regions, fused to the C-terminus of EGFP) (UniProt Q8WXG6)

With “JNK (c-Jun N-terminal kinase), endogenous in NSC19 cells; p54 and p46 isoforms of phosphorylated JNK” the “p54 band of phosphorylated JNK on Western immunoblot, NSC19 clones, 24 h Aβ exposure” value [1] was “DENN and DENN-JBD affected 3 to 4-fold increase in the p54 band with Aβ exposure”, the “p54 band of phosphorylated JNK on Western immunoblot, NSC19 clones, 24 h Aβ exposure” value [2] was “DENN and DENN-JBD affected 3 to 4-fold increase in the p54 band with Aβ exposure” and the “phosphorylated c-Jun (Ser73) on immunoblot, NSC19 clones” value [2] was “Expression of ΔMEKK1, DENN, DENN-CT and DENN-JBD showed sustained levels of phosphorylated c-Jun”.
